Data reported in the MegaScale stability set (Tsuboyama et al. 2023).

B1: EEHEE_rd3_1049 (parent)
chain: TTVKLGDIKVTFDNPEKAKKYAQKLAKIYQLTVHVHGDTIHVK
B2: 1ZHC (parent)
chain: HEFRDEISVLKANNPHFDKIFEKHNQLDDDIKTAEQQNASDAEVSHMKKQKLKLKDEIHSMIIEYREK

Variants of: B1
Assay: folding stability dG (cDNA display proteolysis); higher = more stable
Conditions: PBS, room temperature

Row | Variant | folding stability dG [kcal/mol]
1 | TTVKLGDIKVTFDNPEKAKKYAQKLAKIYQLTVHVHGDTIHCK [V42C] | 1.79

Variants of: B2
Assay: as above
Conditions: PBS, room temperature

Row | Variant | folding stability dG [kcal/mol]
2 | GEFRDEISVLKANNPHFDKIFEKHNQLDDDIKTAEQQNASDAEVSHMKKQKLKLKDEIHSMIIEYREK [H1G] | 0.836
3 | WEFRDEISVLKANNPHFDKIFEKHNQLDDDIKTAEQQNASDAEVSHMKKQKLKLKDEIHSMIIEYREK [H1W] | 1.34
4 | IEFRDEISVLKANNPHFDKIFEKHNQLDDDIKTAEQQNASDAEVSHMKKQKLKLKDEIHSMIIEYREK [H1I] | 0.939
5 | DEFRDEISVLKANNPHFDKIFEKHNQLDDDIKTAEQQNASDAEVSHMKKQKLKLKDEIHSMIIEYREK [H1D] | 1.28
6 | SEFRDEISVLKANNPHFDKIFEKHNQLDDDIKTAEQQNASDAEVSHMKKQKLKLKDEIHSMIIEYREK [H1S] | 1.03
7 | MEFRDEISVLKANNPHFDKIFEKHNQLDDDIKTAEQQNASDAEVSHMKKQKLKLKDEIHSMIIEYREK [H1M] | 1.11
8 | PEFRDEISVLKANNPHFDKIFEKHNQLDDDIKTAEQQNASDAEVSHMKKQKLKLKDEIHSMIIEYREK [H1P] | 0.497
9 | VEFRDEISVLKANNPHFDKIFEKHNQLDDDIKTAEQQNASDAEVSHMKKQKLKLKDEIHSMIIEYREK [H1V] | 0.768
10 | QEFRDEISVLKANNPHFDKIFEKHNQLDDDIKTAEQQNASDAEVSHMKKQKLKLKDEIHSMIIEYREK [H1Q] | 0.787
11 | AEFRDEISVLKANNPHFDKIFEKHNQLDDDIKTAEQQNASDAEVSHMKKQKLKLKDEIHSMIIEYREK [H1A] | 0.874
12 | FEFRDEISVLKANNPHFDKIFEKHNQLDDDIKTAEQQNASDAEVSHMKKQKLKLKDEIHSMIIEYREK [H1F] | 1.05
13 | LEFRDEISVLKANNPHFDKIFEKHNQLDDDIKTAEQQNASDAEVSHMKKQKLKLKDEIHSMIIEYREK [H1L] | 1.12
14 | KEFRDEISVLKANNPHFDKIFEKHNQLDDDIKTAEQQNASDAEVSHMKKQKLKLKDEIHSMIIEYREK [H1K] | 0.855
15 | TEFRDEISVLKANNPHFDKIFEKHNQLDDDIKTAEQQNASDAEVSHMKKQKLKLKDEIHSMIIEYREK [H1T] | 0.856
16 | YEFRDEISVLKANNPHFDKIFEKHNQLDDDIKTAEQQNASDAEVSHMKKQKLKLKDEIHSMIIEYREK [H1Y] | 0.73
17 | EEFRDEISVLKANNPHFDKIFEKHNQLDDDIKTAEQQNASDAEVSHMKKQKLKLKDEIHSMIIEYREK [H1E] | 1.23
18 | NEFRDEISVLKANNPHFDKIFEKHNQLDDDIKTAEQQNASDAEVSHMKKQKLKLKDEIHSMIIEYREK [H1N] | 0.835
19 | REFRDEISVLKANNPHFDKIFEKHNQLDDDIKTAEQQNASDAEVSHMKKQKLKLKDEIHSMIIEYREK [H1R] | 0.829
20 | HENRDEISVLKANNPHFDKIFEKHNQLDDDIKTAEQQNASDAEVSHMKKQKLKLKDEIHSMIIEYREK [F3N] | 0.409
21 | HEARDEISVLKANNPHFDKIFEKHNQLDDDIKTAEQQNASDAEVSHMKKQKLKLKDEIHSMIIEYREK [F3A] | 0.526
22 | HEIRDEISVLKANNPHFDKIFEKHNQLDDDIKTAEQQNASDAEVSHMKKQKLKLKDEIHSMIIEYREK [F3I] | 0.418
23 | HEDRDEISVLKANNPHFDKIFEKHNQLDDDIKTAEQQNASDAEVSHMKKQKLKLKDEIHSMIIEYREK [F3D] | 0.364
24 | HEGRDEISVLKANNPHFDKIFEKHNQLDDDIKTAEQQNASDAEVSHMKKQKLKLKDEIHSMIIEYREK [F3G] | 0.249
25 | HELRDEISVLKANNPHFDKIFEKHNQLDDDIKTAEQQNASDAEVSHMKKQKLKLKDEIHSMIIEYREK [F3L] | 1.04

Row | Variant | folding stability dG [kcal/mol]
26 | HEHRDEISVLKANNPHFDKIFEKHNQLDDDIKTAEQQNASDAEVSHMKKQKLKLKDEIHSMIIEYREK [F3H] | 0.635
27 | HEPRDEISVLKANNPHFDKIFEKHNQLDDDIKTAEQQNASDAEVSHMKKQKLKLKDEIHSMIIEYREK [F3P] | 0.015
28 | HEMRDEISVLKANNPHFDKIFEKHNQLDDDIKTAEQQNASDAEVSHMKKQKLKLKDEIHSMIIEYREK [F3M] | 0.267
29 | HEERDEISVLKANNPHFDKIFEKHNQLDDDIKTAEQQNASDAEVSHMKKQKLKLKDEIHSMIIEYREK [F3E] | 0.242
30 | HEKRDEISVLKANNPHFDKIFEKHNQLDDDIKTAEQQNASDAEVSHMKKQKLKLKDEIHSMIIEYREK [F3K] | 0.26
31 | HVFRDEISVLKANNPHFDKIFEKHNQLDDDIKTAEQQNASDAEVSHMKKQKLKLKDEIHSMIIEYREK [E2V] | 1.2
32 | HHFRDEISVLKANNPHFDKIFEKHNQLDDDIKTAEQQNASDAEVSHMKKQKLKLKDEIHSMIIEYREK [E2H] | 0.917
33 | HLFRDEISVLKANNPHFDKIFEKHNQLDDDIKTAEQQNASDAEVSHMKKQKLKLKDEIHSMIIEYREK [E2L] | 1.08
34 | HSFRDEISVLKANNPHFDKIFEKHNQLDDDIKTAEQQNASDAEVSHMKKQKLKLKDEIHSMIIEYREK [E2S] | 0.328
35 | HYFRDEISVLKANNPHFDKIFEKHNQLDDDIKTAEQQNASDAEVSHMKKQKLKLKDEIHSMIIEYREK [E2Y] | 1
36 | HAFRDEISVLKANNPHFDKIFEKHNQLDDDIKTAEQQNASDAEVSHMKKQKLKLKDEIHSMIIEYREK [E2A] | 1.29
37 | HNFRDEISVLKANNPHFDKIFEKHNQLDDDIKTAEQQNASDAEVSHMKKQKLKLKDEIHSMIIEYREK [E2N] | 0.525
38 | HIFRDEISVLKANNPHFDKIFEKHNQLDDDIKTAEQQNASDAEVSHMKKQKLKLKDEIHSMIIEYREK [E2I] | 0.998
39 | HTFRDEISVLKANNPHFDKIFEKHNQLDDDIKTAEQQNASDAEVSHMKKQKLKLKDEIHSMIIEYREK [E2T] | 0.802
40 | HFFRDEISVLKANNPHFDKIFEKHNQLDDDIKTAEQQNASDAEVSHMKKQKLKLKDEIHSMIIEYREK [E2F] | 0.966
41 | HPFRDEISVLKANNPHFDKIFEKHNQLDDDIKTAEQQNASDAEVSHMKKQKLKLKDEIHSMIIEYREK [E2P] | 0.82
42 | HQFRDEISVLKANNPHFDKIFEKHNQLDDDIKTAEQQNASDAEVSHMKKQKLKLKDEIHSMIIEYREK [E2Q] | 1.07
43 | HWFRDEISVLKANNPHFDKIFEKHNQLDDDIKTAEQQNASDAEVSHMKKQKLKLKDEIHSMIIEYREK [E2W] | 1.66
44 | HKFRDEISVLKANNPHFDKIFEKHNQLDDDIKTAEQQNASDAEVSHMKKQKLKLKDEIHSMIIEYREK [E2K] | 0.746
45 | HMFRDEISVLKANNPHFDKIFEKHNQLDDDIKTAEQQNASDAEVSHMKKQKLKLKDEIHSMIIEYREK [E2M] | 0.855
46 | HGFRDEISVLKANNPHFDKIFEKHNQLDDDIKTAEQQNASDAEVSHMKKQKLKLKDEIHSMIIEYREK [E2G] | 0.827
47 | HRFRDEISVLKANNPHFDKIFEKHNQLDDDIKTAEQQNASDAEVSHMKKQKLKLKDEIHSMIIEYREK [E2R] | 1.19
48 | HDFRDEISVLKANNPHFDKIFEKHNQLDDDIKTAEQQNASDAEVSHMKKQKLKLKDEIHSMIIEYREK [E2D] | 0.711
